Holding throughout (assay type): biochemical
A short description of experiment [1]: Lipase-catalyzed perhydrolysis of triacetin at pH 4.0 (Example 2). The note with it: 250 mM triacetin, 500 mM H2O2, pH 4.0, 1 mg enzyme, 22° C. As for the experimental part:
Into a 4-mL glass vial with stir bar was added 1 mg enzyme (ICR 101-117, BioCatalytics, Pasadena, Calif.) in 0.050 mL of 50 mM sodium acetate/acetic acid buffer (pH 4.0), 0.900 mL of 278 mM triacetin in 50 mM sodium acetate/acetic acid buffer (pH 4.0, 250 mM final triacetin concentration), and 0.052 mL 30% hydrogen peroxide (500 mM final concentration). […] A portion of the filtered reaction samples was diluted 1:10 with dd water and analyzed for hydrogen peroxide, and the remaining portion of the sample was directly analyzed for peracid using the HPLC assay method (Table 2).

Experiment [2] can be described thus: Lipase-catalyzed perhydrolysis of triacetin at pH 6.5 (Example 1). The note with it: 250 mM triacetin, 500 mM H2O2, pH 6.5, 1 mg enzyme, 22° C. As for the experimental part: Into a 4-mL glass vial with stir bar was added 1 mg enzyme (ICR 101-117, BioCatalytics, Pasadena, Calif.) in 0.050 mL of 50 mM potassium phosphate buffer (pH 6.5), 0.900 mL of 278 mM triacetin in 50 mM potassium phosphate buffer (pH 6.5, 250 mM final triacetin concentration), and 0.052 mL 30% hydrogen peroxide (500 mM final concentration). After stirring for 5 or 30 minutes at 22° C., a 0.250 mL sample was filtered using a 30,000 Nominal Molecular Weight Limit (NMWL) filter (Millipore UltraFree-MC, Millipore Corp., Billerica, Mass.) centrifuged for 2 minute at 12,000 RPM. A portion of the filtered reaction samples was diluted 1:10 with dd water and analyzed for hydrogen peroxide, and the remaining portion of the sample was directly analyzed for peracid using the HPLC assay method (Table 1).

Experiment [3] in a line: Lipase-catalyzed perhydrolysis of a mixture of diacetin, triacetin and monoacetin at pH 6.5 (Example 4). The note with it: diacetin (278 mM), triacetin (144 mM), monoacetin (131 mM); for 250 mM H2O2 peracetic acid (ppm), 5 min / 250 mM H2O2 peracetic acid (ppm), 30 min: pH 6.5, 250 mM H2O2, 1 mg enzyme; for 500 mM H2O2 peracetic acid (ppm), 5 min / 500 mM H2O2 peracetic acid (ppm), 30 min: pH 6.5, 500 mM H2O2, 1 mg enzyme. As for the experimental part: Into a 4-mL glass vial with stir bar was added 1 mg enzyme (ICR 101-117, BioCatalytics, Pasadena, Calif.) in 0.050 mL of 50 mM potassium phosphate buffer (pH 6.5), 0.900 mL of an aqueous mixture containing diacetin (278 mM), triacetin (144 mM) and monoacetin (131 mM) in 50 mM potassium phosphate buffer (pH 6.5), and either 0.052 mL 30% hydrogen peroxide (500 mM final concentration) or 0.026 mL 30% hydrogen peroxide (250 mM final concentration). […] A portion of the filtered reaction samples was diluted 1:10 with dd water and analyzed for hydrogen peroxide, and the remaining portion of the sample was directly analyzed for peracid using the HPLC assay method (Table 4).

The nature of experiment [4]: Protease-catalyzed perhydrolysis of diacetamide at pH 6.5 (Example 9). The note with it: pH 6.5, 500 mM H2O2, 1 mg protease. As to the method:
(§1) Into a 4-mL glass vial with stir bar was added 1 mg protease (Table 6) in 0.050 mL of 50 mM potassium phosphate buffer (pH 6.5), 0.900 mL of an aqueous mixture containing either a) acetamide (278 mM) in 50 mM potassium phosphate buffer (pH 6.5) or b) diacetamide (278 mM) in 50 mM potassium phosphate buffer (pH 6.5), and 0.052 mL 30% hydrogen peroxide (500 mM final concentration). […] A portion of the filtered reaction samples was diluted 1:10 with dd water and analyzed for hydrogen peroxide, and the remaining portion of the sample was directly analyzed for peracid using the HPLC assay method (Table 10).

Experiment [5] can be described thus: Protease-catalyzed perhydrolysis of acetamide at pH 4.0 (Example 6). The note with it: pH 4.0, 500 mM H2O2, 1 mg protease. As for the experimental part:
as §1, with “sodium acetate/acetic acid” for “potassium phosphate”, “4.0),” for “6.5),”, “4.0)” for “6.5)”, “7).” for “10).”

Experiment [6] can be described thus: Protease-catalyzed perhydrolysis of acetamide at pH 6.5 (Example 9). The note with it: pH 6.5, 500 mM H2O2, 1 mg protease. As for the experimental part:
as §1

B1: ICR-107: Pseudomonas cepacia lipase, BioCatalytics (protein, UniProt P22088 45-364, looked up)
Triacylglycerol lipase: AAGYAATRYPIILVHGLSGTDKYAGVLEYWYGIQEDLQQNGATVYVANLSGFQSDDGPNGRGEQLLAYVKTVLAATGATKVNLVGHSQGGLSSRYVAAVAPDLVASVTTIGTPHRGSEFADFVQDVLAYDPTGLSSSVIAAFVNVFGILTSSSHNTNQDALAALQTLTTARAATYNQNYPSAGLGAPGSCQTGAPTETVGGNTHLLYSWAGTAIQPTLSVFGVTGATDTSTLPLVDPANVLDLSTLALFGTGTVMINRGSGQNDGLVSKCSALYGKVLSTSYKWNHLDEINQLLGVRGAYAEDPVAVIRTHANRLKLAGV
With B1, in experiment [1], the “peracetic acid (ppm), 5 min” value worked out at 32 ppm and the “peracetic acid (ppm), 30 min” value is listed as 135 ppm. Also, in experiment [2], the “peracetic acid (ppm), 5 min” value stood at 179 ppm and the “peracetic acid (ppm), 30 min” value is recorded as 0 ppm. In experiment [3], the “250 mM H2O2 peracetic acid (ppm), 5 min” value is reported as 0 ppm; the “250 mM H2O2 peracetic acid (ppm), 30 min” value is on record as 102 ppm; the “500 mM H2O2 peracetic acid (ppm), 5 min” value is listed as 17 ppm; the “500 mM H2O2 peracetic acid (ppm), 30 min” value is reported as 54 ppm.

B2: ICR-115: Thermomyces languinosus lipase, BioCatalytics (protein, UniProt O59952 23-291, looked up)
Lipase: EVSQDLFNQFNLFAQYSAAAYCGKNNDAPAGTNITCTGNACPEVEKADATFLYSFEDSGVGDVTGFLALDNTNKLIVLSFRGSRSIENWIGNLNFDLKEINDICSGCRGHDGFTSSWRSVADTLRQKVEDAVREHPDYRVVFTGHSLGGALATVAGADLRGNGYDIDVFSYGAPRVGNRAFAEFLTVQTGGTLYRITHTNDIVPRLPPREFGYSHSSPEYWIKSGTLVPVTRNDIVKIEGIDATGGNNQPNIPDIPAHLWYFGLIGTCL
In the case of B2, in experiment [1], the “peracetic acid (ppm), 5 min” value stood at 206 ppm and the “peracetic acid (ppm), 30 min” value is given as 132 ppm. Also, in experiment [2], the “peracetic acid (ppm), 5 min” value was 216 ppm and the “peracetic acid (ppm), 30 min” value is 113 ppm. In experiment [3], the “250 mM H2O2 peracetic acid (ppm), 5 min” value turned out to be 0 ppm; the “250 mM H2O2 peracetic acid (ppm), 30 min” value turned out to be 8 ppm; the “500 mM H2O2 peracetic acid (ppm), 5 min” value was 11 ppm; the “500 mM H2O2 peracetic acid (ppm), 30 min” value is 8 ppm.

B3: ICR-116: Mucor miehei lipase, BioCatalytics (protein, UniProt P19515 95-363, looked up)
Lipase: SIDGGIRAATSQEINELTYYTTLSANSYCRTVIPGATWDCIHCDATEDLKIIKTWSTLIYDTNAMVARGDSEKTIYIVFRGSSSIRNWIADLTFVPVSYPPVSGTKVHKGFLDSYGEVQNELVATVLDQFKQYPSYKVAVTGHSLGGATALLCALDLYQREEGLSSSNLFLYTQGQPRVGDPAFANYVVSTGIPYRRTVNERDIVPHLPPAAFGFLHAGEEYWITDNSPETVQVCTSDLETSDCSNSIVPFTSVLDHLSYFGINTGLCT
With B3, in experiment [1], the “peracetic acid (ppm), 5 min” value is listed as 14 ppm and the “peracetic acid (ppm), 30 min” value is 0 ppm. Also, in experiment [2], the “peracetic acid (ppm), 5 min” value worked out at 238 ppm and the “peracetic acid (ppm), 30 min” value is recorded as 117 ppm. In experiment [3], the “250 mM H2O2 peracetic acid (ppm), 5 min” value was 0 ppm; the “250 mM H2O2 peracetic acid (ppm), 30 min” value is listed as 7 ppm; the “500 mM H2O2 peracetic acid (ppm), 5 min” value is recorded as 0 ppm; the “500 mM H2O2 peracetic acid (ppm), 30 min” value was 0 ppm.

B4: ICR-114: porcine pancreas lipase, BioCatalytics (protein, UniProt P00591 1-450, looked up)
Pancreatic triacylglycerol …: SEVCFPRLGCFSDDAPWAGIVQRPLKILPWSPKDVDTRFLLYTNQNQNNYQELVADPSTITNSNFRMDRKTRFIIHGFIDKGEEDWLSNICKNLFKVESVNCICVDWKGGSRTGYTQASQNIRIVGAEVAYFVEVLKSSLGYSPSNVHVIGHSLGSHAAGEAGRRTNGTIERITGLDPAEPCFQGTPELVRLDPSDAKFVDVIHTDAAPIIPNLGFGMSQTVGHLDFFPNGGKQMPGCQKNILSQIVDIDGIWEGTRDFVACNHLRSYKYYADSILNPDGFAGFPCDSYNVFTANKCFPCPSEGCPQMGHYADRFPGKTNGVSQVFYLNTGDASNFARWRYKVSVTLSGKKVTGHILVSLFGNEGNSRQYEIYKGTLQPDNTHSDEFDSDVEVGDLQKVKFIWYNNNVINPTLPRVGASKITVERNDGKVYDFCSQETVREEVLLTLNPC
For B4, in experiment [1], the “peracetic acid (ppm), 5 min” value came out at 165 ppm and the “peracetic acid (ppm), 30 min” value was 53 ppm. Moreover, in experiment [2], the “peracetic acid (ppm), 5 min” value is reported as 135 ppm and the “peracetic acid (ppm), 30 min” value was 0 ppm. Also, in experiment [3], the “250 mM H2O2 peracetic acid (ppm), 5 min” value is reported as 0 ppm; the “250 mM H2O2 peracetic acid (ppm), 30 min” value came to 0 ppm; the “500 mM H2O2 peracetic acid (ppm), 5 min” value is 0 ppm; the “500 mM H2O2 peracetic acid (ppm), 30 min” value was 0 ppm.

B5: Proteinase K, T. album, recombinantly expressed in P. pastoris: Proteinase K, T. album, recombinantly expressed in P. pastoris, Roche 3115879 (protein, UniProt P06873 106-384, looked up)
Proteinase K: AAQTNAPWGLARISSTSPGTSTYYYDESAGQGSCVYVIDTGIEASHPEFEGRAQMVKTYYYSSRDGNGHGTHCAGTVGSRTYGVAKKTQLFGVKVLDDNGSGQYSTIIAGMDFVASDKNNRNCPKGVVASLSLGGGYSSSVNSAAARLQSSGVMVAVAAGNNNADARNYSPASEPSVCTVGASDRYDRRSSFSNYGSVLDIFGPGTSILSTWIGGSTRSISGTSMATPHVAGLAAYLMTLGKTTAASACRYIADTANKGDLSNIPFGTVNLLAYNNYQA
modifications: recombinant, Pichia pastoris
As to B5, in experiment [4] (5 min), the “diacetamide (250 mM) peracetic acid (ppm), 5 min” value is on record as 66 ppm. The “diacetamide (250 mM) peracetic acid (ppm), 30 min” value in experiment [4] (30 min) came to 99 ppm. In addition, the “acetamide (250 mM) peracetic acid (ppm), 5 min” value in experiment [5] (5 min) worked out at 26 ppm; in experiment [6] (5 min), 150 ppm. Besides, the “acetamide (250 mM) peracetic acid (ppm), 30 min” value in experiment [5] (30 min) was 43 ppm; in experiment [6] (30 min) it was 194 ppm.

The values are drawn from US8063008B2, “Enzymatic production of peracids using perhydrolytic enzymes” (E. I. du Pont de Nemours and Company, priority 2005, dated 2011).
